# Experiment: soluble on expression in E. coli; label from the status in PepcDB or PDB records
row,Sequence,soluble on expression in E. coli
1,MAHHHHHHMQKSNEKNGPENNAKNGPENNAKNGPENNAKKGPENNAKKGPENNAKKGPENNAKKGPENNAKKGPENKEKKGHSCCGKKGSTGNPKEKKKSDKNSEDNKNSQGDKISKDHAECTPSLHVECAHNCCKKKLAFIYDCWDNFKSYKNIIEQHTKGQQENNFQLQGAGDEDSGEDGGASTTGHSMAMAMPMSFQLSTHTIILFKFWETKTVSRAGIPSQWRLLSGTP,soluble
2,MAHHHHHHMQLKERLQQWRERGLQGADVDPPVQRPRSFRPSCIVPRLYLGAAKDVQDVRTLRSRLLPDKLLMVVSTCDPSDPPRMELRQIAPTKGTAYTVKRLAVCSWEELEKRVVTSSFCCRLPRNEVMVATAEWLKEVLKTKSLPPVSLEECRDVQKGETDGKVSEVFEEGLYLKLCLPWKDESNFTVRPYFAVATALIHATMDGIQGAVVCYCMAGKSRSATLTCALLLYCCYDNVGRPKDEEECSAYKAVQAVVEFVREVRLCVSPNEGFIEQLRDYASDLLAV,not soluble
3,MAHHHHHHMQNSVGDVINLISKSEIRYEGKLHSINTEENTVSLSNVRIYGTEGRKGGGVEEVPPTEQLFEFIVFRGSDIKDLTVFRDSSSPQARDPAIVEVHAPARGRGGRAAAAAPAASATAASSAATRGSRSFYDEAQPYSRGGGGGRRGGYGAGRYNNNNGGGSNNSNSNRNHRGGYGGRGGSGNYRRNYRDYHTGQDFKPADIGATEKFEGDFDFAKCREEFEKKKSEFEKAKEDAKSHAKAYDKSSFFDTISCDQKEKNNMNRAEMRKADTETFGPEMVSSMRGFRRGRGGRGRYQQR,not soluble
4,MAHHHHHHMQTHISRAVEEGRHTKEAAAYFESIMNDKPEFRLFMREAQRLIGDQDPRGLTRYQQTHYSEKLSRYMSGVASERLMRAHTEDENTRRHTHDGSPTGENYWFEAGQILASPTVPSFVKDEVLREMRGGRKEDSPAFEEPKAVAEMEADDEGFAEHLRRQRKRLLSPDDHLN,soluble
5,MAHHHHHHMQYVERLFSAYGHVADVKIVFEGSVQFAEVMYNAVDDADSAIAALHHHYCASRNTPLVVLYHVRSPCISEYGRKVGREYAQAAALGRDPSYIPLEGFDENYPRTDVPPPPSDREIFEGARWNDSSGPAGEGRLHSY,not soluble
6,MAHHHHHHMRARPSWHLRLNKNRDDVTTFRGFPATARSCCSIGSISGLQALPHPMELSSVEYRSEGWTHAICRLYRTLYKLHAKQLHPIQREFGDRFVQTEFQRHIDASEKHARIFYQSWYSYAVQLLVGQTSRDMTAEEQQQLTPEQKETMRRLRSHVLQAKQSEPGFHL,not soluble
7,MAHHHHHHMRHCHMSFAYCFCPFSAHRSASSQGYTRLMRRLSGSTCLLTGVTRAGRWLPTTAPCLSLCSFFLTASRRKQSTSGIGGDVRDIEETHPDFQPRLVSADLAEDEIAMVKKDIDDTIKSEDVVTFIKGLPEAPMCAYSKRMIDVLEALGLEYTSFDVLAHPVVRSYVKEVSEWPTIPQLFIKAEFVGGLDIVTKMLESGDLKKMLRDKGITCRDL,not soluble
8,MAHHHHHHMRPSFGSLDYNVLSNFCEKLFLAADKNDRNEVITKKTLQMFFTSKIFYEILNHFKNLSTEENKKYVYAKYKTIYLKKCFDNNITPEPGSPKNEDAVSEVDNKIDDEDKEEEEQITNDKYEHYEENNNDYYKGREKIGTQSKGTEDSVDFNLSLKHAQYAVNGIIKIIYIPRYSETRAQIIPFIFRIIFFFNGEEETKNIGYII,not soluble
9,MAHHHHHHMRRVLLFRNRVDFVATLLQQGRLADMLMLQHFTSRTPQKPPAGNAAERNSGGTKVSVGETSRRALLTRCEAVKAKAMSTPCTDWLADAYGSGEWCALSESRDMVRVVASDNDPTRVKLRGTFPVLVQEGSSPASVRLAASKESGEALIVTVPLVQSGEKVRSSAIGGGIRAVTLKEADGSVVSDAATSVDAFAAEQNILSAAVCSGILGKLEEICALHATHTVRYDALLVRNPAVQKRLSQLACARFSLDALSSFVASAAVDEPMPLVESVALRMHAKHALAIGMGSARDIIHGTAMLKASPHRSKPERLIDYPYAQQLFASERYVLSSLGASSAAETMRHFTPLLMQPQTHMPAGVQGPLASLLLGGKGGNVNLAAPHANLRVSAAFLEKDIAAMLQRIQQQKKRADPLFVMAIAQYVAELFANTAVVYRTTASLTHEDDSAPRDWLLTQAFCADSSARRATILCEWDLSSAARKAIGKAADLNGCTTHPVELMNAEPARKPKVPSKSAAASVTQEAN,not soluble
10,MAHHHHHHMRSTSALYRYACDEEGCVSHSELVKLFHGIDVALGTDADATAKADDMTPAPPPPALADKMLLAYAPNLCFPTHLTLSQSYLGDAGLAAFMRMLPVLRWVRAIEARGVGAGPRTIEALSGALTAYLVEGCEEAAALPTVATMGDSVSGAEQLAGGRLPALELVDLRDNDGIYALSGQRLLTALRKRRLMLRAWCAAHAGVGDVVPALEVLVDLDALPPSTANALHEWNEGAANLKYQRMLARETHRWQEQVQVFTVRSAVSEAMKCSDSDMPGTAVAGAAAGQPVGEHVIFRLPSSADGDSQMTQMTCEVNACMSDFLTASCCLSSAKEAAPQPAHVVSGSSSLACPLPTLDGVRAALQVCIDFGADTLAILPHTNATLWYVASVWQQQQKEQHATTPSSSADTAEYVQLNYWEAKANVAALLRGLQANPALETELETSSQAGGVVIQRHLYRLRELYVQLDQNDAPHEDAICTARVAGVGATPLSEMVALYYRIVAALVTRRFSETHLPSMRACEQHISDVTEHVLNHLVVGEVSSEALEARIERLRSSTDAGSVPSGRPSGASDFSQSTRALPPVMAQCLYHLRRHQAEAEAWVKTYAGTAVAAPQPSSSSAAAAPIHAFHACHCADGLRRHMDECVAPTSSNEGLSSNLLPLPCTSCCYHALQAAQTLLQSPGEGSSGECELCARWAILEPVRRALPRELRMFFLDMVIRHRSRVRGGCAYVPSLDSVTGVGAPLPLSMVDWLAYTEHQSENWAKVLRVFGEWYRLRALESYGIAEARTLLRQPPT,not soluble
11,MAHHHHHHMRTDKCVSEAVQTFREAQNLLPTLYTHLSALENIMTQKGALVGAARRREQCFAKALPASHFLCMDTGTEERTLPQATTAGPSCVHTTSPVMTSPLGVLAAFSASTVHHLVAQHQRDVEELLGVVSRITQRSWSQKVEQLKSKIAQLERASEVGETPEHPPSAGGIVAVSSTPASSSYFATASELSVALYGFAACLLKMGNVLQETMLALRKDARLSLMAHAAPGSAALLTSTSADTASHLAAMLAREDRTSEGMSLLPMHSSHCGSLHEATSASSPFSGAAGVQAAPLQPMRLVDAVGKLKSFLEARWKSCCDSYLAPESHLLLALV,soluble
12,MAHHHHHHMSGITVQLVFAFVGTRVPYFMPESATAASSPARSPFGNASSVSFNAAAQPTLRADSARTSPRLTPCIPTNLFTAHGLLSHLAKALEPSLHAAANPEAATAESASLSPTAPLPFHKPPVFELFDYASLDPLEGSAALRDEQVLLVLCDIATTAQLVEALQLEWLEVYSGVHHPHHRSCSASTPEPAHTTDMAVCTTEEKLRNVAHAQQALCKPVGLHLSLLRKELLSREATLAAQKEQLAQMRSCTTEGTAPAAPATASGSDGLSTPMLSGRAASFPLLVELEPSLSSEPAPSATDATHLQKLEAPLALCEARVRAVESLMQRAAKHHTKLLGLAASERATEEAFQRGNVSRACAEYLEHTEQDRSAAEAIIADYQVEMTRQVKVVRQLIAYITQVRKLASKAKYEMGVVELILSRLSLTSLRPRLMKEAEALLRRRVILRRAARRQMLLLQETEFVKLQQDLESFSQRMEVQKVLPEKVRWYLRAPLPSLMPEEDPVATLLDHALIDREEDEAQELVEKTRVYTADSSDPEKNALQITEALLPVERLARRLEEARASAAQYKSRVEELEERLKLYETAEALSPPPLQDSAVKSPSTERPAEGGGSFEEG,soluble
13,MAHHHHHHMSGRCFSKSLESDVDSAAAAESSLSATEVSTDGYRTGKQPRHVAFLLEKDLKETDTEEVPRAAFAGRRGGAGARPTEEQWSWSGRAEADALRQRALQCGEDFVRVASGLGYEVVAHTPTAFLKRGMTEKTAALFGVAQPEKQGGTGLAVARSATARASTGAVLLSSPSAAETTVTLAAPFSSGGSSVFPRKGELDSCSSRSSSPGTEDQVGMVPVLSPLLQGSEPGQRRLSTDASLRALEVQTPRTTGAHAGVYRYPATIASLHPLQDSTPNSVADGNGVHTSPHRSSRTGFGAEHHANDGANPPGPAIANSTRAVHWTPTTRHPSPSRGSPASHRALTPRTVFPTGNHPVTASLMVPGQQSDAFAVRLSIMDVTSSRTNSNTNTSMSTEHLNGHEFVNVGGSQNTNNRFFTSSTDALNTPAVRMTDDEDWLRATGRLIQ,not soluble

# From the DeepSol protein solubility set
